Target: T1, γc on human cell lines (Ramos, HH, U937) (human, UniProt P31785 23-369)
T1 sequence (looked up): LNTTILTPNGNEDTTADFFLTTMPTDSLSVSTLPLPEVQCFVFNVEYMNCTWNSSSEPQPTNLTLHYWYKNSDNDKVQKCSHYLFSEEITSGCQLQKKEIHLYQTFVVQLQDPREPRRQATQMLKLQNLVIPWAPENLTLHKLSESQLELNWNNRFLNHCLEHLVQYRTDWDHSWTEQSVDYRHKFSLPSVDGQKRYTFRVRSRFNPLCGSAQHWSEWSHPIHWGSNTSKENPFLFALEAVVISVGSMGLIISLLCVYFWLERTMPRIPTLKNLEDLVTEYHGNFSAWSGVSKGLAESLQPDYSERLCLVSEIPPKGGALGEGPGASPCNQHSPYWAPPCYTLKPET
Test: cell-based or functional assay

STAT6 phosphorylation in Ramos cells, potency against IL-4: ~3 fold | STAT6 phosphorylation in Ramos cells, potency against KFR: ~10 fold
B1: super-4 (IL-4 RGA), free, not bound to IL-4Rα (ligand)
chain: HKCDITLQEIIKTLNSLTEQKTLCTELTVTDIFAASKNTTEKETFCRAATVLRQFYSHHEKDTRCLGATAQQFHRHKQLIRFLKRLDRNLWGLAGLNSCPVKEANQSTLENFLERLRVIMQSKWFKCGAHHHHHH

Source: US20160244499A1 (Stanford University, published 2016)
